The values that follow come from patent US20030176334A1 (Scripps Research, published 2003).

Usually IC50 stands for the concentration that inhibits the measured activity by half. Higher therefore signals lower potency.

Square brackets hold non-standard residues; d marks the D form.

Experiment [1] deals with integrin αvβ3 (vitronectin receptor), purified and immobilized (UniProt P06756). In words: solid phase receptor binding assay, iodinated MMP-2 on immobilized αvβ3.
The target of experiment [2] is integrin αIIbβ3, purified and immobilized (UniProt P08514). In words: solid phase receptor binding assay, iodinated MMP-2 on immobilized αIIbβ3.
In experiment [3] the target is T1, integrin αIIbβ3, purified and immobilized (UniProt P08514 32-1039; P05106 27-788).
T1 construct: Purified integrin coated at 50 ng per well; also called α11bβ3
As to the kind of experiment: competition, fibrinogen (FG) binding to immobilized αIIbβ3; individual assay.
Description: (§1) Briefly, selected purified integrins were separately immobilized in Titertek microtiter wells at a coating concentration of 50 nanograms (ng) per well. […] After incubation for 18 hours at 4C, nonspecific binding sites on the plate were blocked with 10 milligrams/milliliter (mg/ml) of bovine serum albumin (BSA) in Tris-buffered saline. […] Radiolabeled ligands were used at concentrations of 1 nM and binding was challenged separately with unlabeled synthetic peptides.
(§2) Following a three hour incubation, free ligand was removed by washing and bound ligand was detected by gamma counting.

The target in experiment [4] is T2, integrin αvβ3 (vitronectin receptor), purified and immobilized (UniProt P06756 31-1048; P05106 27-788).
T2 construct: Purified integrin coated at 50 ng per well; also called αvβ3 receptor
In words: competition, vitronectin (VN) binding to immobilized αvβ3; individual assay.
Description: as §1, §2

Experiment [5] has as its target T2, integrin αvβ3 (vitronectin receptor), …. As to the kind of experiment: competition, fibrinogen (FG) binding to immobilized αvβ3; individual assay.
Description: as §1, §2
The target in experiment [6] is T1, integrin αIIbβ3, purified and …. In words: competition, vitronectin (VN) binding to immobilized αIIbβ3; individual assay.
Description: as §1, §2
Experiment [7] shares this target. In words: competition, 125I-fibrinogen (1 nM) binding to immobilized purified αIIbβ3, gamma counting; mean of duplicates ± SD.
Description: as §1, §2
Experiment [8] addresses T2, integrin αvβ3 (vitronectin receptor), …. As to the kind of experiment: competition, 125I-fibrinogen (1 nM) binding to immobilized purified αvβ3, gamma counting; mean of duplicates ± SD.
Description: as §1, §2

T2 sequence (P06756 31-1048, form in doubt, chain 1 of 2): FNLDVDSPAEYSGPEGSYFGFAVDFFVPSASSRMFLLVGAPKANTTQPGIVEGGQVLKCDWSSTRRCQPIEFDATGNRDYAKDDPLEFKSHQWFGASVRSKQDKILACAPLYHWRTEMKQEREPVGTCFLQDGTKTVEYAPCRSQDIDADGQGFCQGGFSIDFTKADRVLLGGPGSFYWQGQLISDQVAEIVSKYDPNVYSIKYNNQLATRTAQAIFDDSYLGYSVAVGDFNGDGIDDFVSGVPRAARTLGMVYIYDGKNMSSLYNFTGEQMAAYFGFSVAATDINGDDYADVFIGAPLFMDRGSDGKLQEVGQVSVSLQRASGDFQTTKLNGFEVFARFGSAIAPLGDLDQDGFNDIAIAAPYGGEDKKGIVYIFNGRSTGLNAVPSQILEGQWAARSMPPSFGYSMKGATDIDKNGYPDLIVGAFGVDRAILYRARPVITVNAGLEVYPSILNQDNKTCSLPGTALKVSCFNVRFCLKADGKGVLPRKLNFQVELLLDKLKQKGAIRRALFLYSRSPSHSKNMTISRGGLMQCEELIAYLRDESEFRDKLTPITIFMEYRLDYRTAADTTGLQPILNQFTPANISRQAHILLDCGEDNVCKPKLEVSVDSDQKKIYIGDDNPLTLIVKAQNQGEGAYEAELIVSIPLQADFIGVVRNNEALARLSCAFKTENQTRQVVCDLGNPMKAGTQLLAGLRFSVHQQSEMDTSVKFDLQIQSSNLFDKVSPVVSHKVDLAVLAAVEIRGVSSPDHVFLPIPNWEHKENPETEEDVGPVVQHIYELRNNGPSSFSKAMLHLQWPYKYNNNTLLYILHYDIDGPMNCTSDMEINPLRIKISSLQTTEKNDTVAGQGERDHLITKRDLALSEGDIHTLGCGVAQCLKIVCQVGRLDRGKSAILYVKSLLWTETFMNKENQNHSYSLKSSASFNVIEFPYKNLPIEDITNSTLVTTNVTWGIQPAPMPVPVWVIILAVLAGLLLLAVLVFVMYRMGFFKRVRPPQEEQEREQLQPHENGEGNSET
T2 sequence (P05106 27-788, form in doubt, chain 2 of 2): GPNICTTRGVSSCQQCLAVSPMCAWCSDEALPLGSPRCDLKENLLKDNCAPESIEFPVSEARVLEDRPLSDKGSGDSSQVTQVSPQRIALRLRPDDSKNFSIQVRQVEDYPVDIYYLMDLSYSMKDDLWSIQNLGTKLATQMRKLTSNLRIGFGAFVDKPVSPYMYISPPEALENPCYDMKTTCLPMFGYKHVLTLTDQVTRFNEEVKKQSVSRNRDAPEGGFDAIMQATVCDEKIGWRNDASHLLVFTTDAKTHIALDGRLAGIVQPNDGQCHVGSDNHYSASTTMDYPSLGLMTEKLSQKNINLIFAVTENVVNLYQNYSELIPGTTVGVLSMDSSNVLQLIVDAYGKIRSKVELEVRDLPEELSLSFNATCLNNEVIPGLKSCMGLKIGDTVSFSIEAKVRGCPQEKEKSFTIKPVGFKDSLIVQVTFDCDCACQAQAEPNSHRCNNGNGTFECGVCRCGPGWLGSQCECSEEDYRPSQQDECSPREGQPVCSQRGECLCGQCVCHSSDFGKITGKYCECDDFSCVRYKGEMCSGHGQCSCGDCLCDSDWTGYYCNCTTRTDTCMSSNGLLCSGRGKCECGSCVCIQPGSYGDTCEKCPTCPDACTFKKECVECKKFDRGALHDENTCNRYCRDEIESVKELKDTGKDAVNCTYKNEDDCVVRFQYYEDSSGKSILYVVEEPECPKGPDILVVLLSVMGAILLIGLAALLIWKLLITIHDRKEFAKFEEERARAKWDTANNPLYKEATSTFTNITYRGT
Sequence of integrin αvβ3 (vitronectin receptor), purified and immobilized (UniProt P06756) (P06756 31-1048, form in doubt, chain 1 of 2): as the sequence (P06756 31-1048, form in doubt, chain 1 of 2) above
Sequence of integrin αvβ3 (vitronectin receptor), purified and immobilized (UniProt P06756) (P05106 27-788, form in doubt, chain 2 of 2, further chain): as the sequence (P05106 27-788, form in doubt, chain 2 of 2) above

For the molecule “MMP-2 (matrix metalloproteinase-2) as used in the solid phase receptor binding assays (enzyme)”, the bound cpm came out at 300 cpm in experiment [1] and 10 CPM in experiment [2].

B1: peptide 62880, YTAECKPQVTRGDVF (peptide)
peptide: YTAECKPQVTRGDVF
notes: Linear synthetic peptide; also called VN-derived amino acid residues 35-49
On to B1, for which the IC50 in experiment [3] is 4.2 µM; in experiment [4], 0.5 µM; in experiment [5] it was under 0.1 µM; in experiment [6], 0.98 µM.

B2: peptide 62411, TRQVVCDLGNPM (peptide)
peptide: TRQVVCDLGNPM
notes: Linear synthetic peptide; also called αv-derived amino acid residues 676-687
Take B2: the IC50 in experiment [4], in experiment [5] and in experiment [6] was over 100 µM each time.

B3: peptide 62179, cyclo(GRGDfL) (peptide)
peptide: cyclo(GRGD[dF]L)
modifications: also: TFA salt
notes: TFA salt
Consider B3, for which the IC50 in experiment [7] is 0.055 µM; in experiment [8] it was 0.395 µM.

B4: peptide 62181, cyclo(GrGDFV) (peptide)
peptide: cyclo(G[dR]GDFV)
modifications: also: TFA salt
notes: TFA salt; also called cyclo(-Gly-D-Arg-Gly-Asp-Phe-Val); c-(GrGDFV)
Regarding B4, the IC50 was 15 µM in experiment [7] and 1.96 µM in experiment [8].

B5: peptide 62175, cyclo(ARGDfL) (peptide)
peptide: cyclo(ARGD[dF]L)
modifications: also: TFA salt
notes: TFA salt
For B5, the IC50 in experiment [7] came to 0.63 µM; in experiment [8], 1.05 µM.

B6: peptide 62502, TDVNGDGRHDL (peptide)
peptide: TDVNGDGRHDL
notes: Linear synthetic peptide; also called αIIb-derived amino acid residues 296-306
Take B6: the IC50 in experiment [3] was 90 µM; in experiment [4], over 100 µM; in experiment [5] it was over 100 µM; in experiment [6] it was 5 µM.

B7: peptide 62503, GVVRNNEALARLS (peptide)
peptide: GVVRNNEALARLS
notes: Linear synthetic peptide; also called αv-derived amino acid residues 655-667
Turning to B7, the IC50 in experiment [4], in experiment [5] and in experiment [6] was over 100 µM each time.

B8: peptide 62185, cyclo(RADfV) (peptide)
peptide: cyclo(RAD[dF]V)
modifications: also: TFA salt
notes: also called cyclo(Arg-Ala-Asp-D-Phe-Val)
In the case of B8, the IC50 in experiment [7] turned out to be 100 µM; in experiment [8], 0.885 µM.

B9: peptide 62186, cyclo(RaDFV) (peptide)
peptide: cyclo(R[dA]DFV)
modifications: also: TFA salt
notes: TFA salt; also called cyclo(Arg-D-Ala-Asp-Phe-Val)
As to B9, the IC50 in experiment [7] came out at 100 µM; in experiment [8] it was 57.5 µM.
